# The supplement of paper PMC7877785
# ± gives the uncertainty stated by the source.
# Assay: self-splicing fitness, log relative to wild type (ln ratio); higher = more splicing; Tetrahymena group I intron in knt gene, E. coli kanamycin selection, DiMSum; sequences stand for … in CUCUCU…GGAGGGAAAAGUUAUCAGGCAUGCACCUGGUAGCUAGUCUUUAAACCAAUAGAUUGCAUCGGUUUAAAAGGCAAGACCGUCAAAUUGCGGGAAAGGGGUCAACAGCCGUUCAGUACCAAGUCUCAGGGGAAACUUUGAGAUGGCCUUGCAAAGGGUAUGGUAAUAAGCUGACGGACAUGGUCCUAACCACGCAGCCAAGUCCUAAGUCAACAGAUCUUCUGUUGAUAUGGAUGCAGUUCACAGACUAAAUGUCGGUCGGGGAAGAUGUAUUCUUCUCAUAAGAUAUAGUCGGACCUCUCCUUAAUGGGAGCUAGCGGAUGAAGUGAUGCAACACUGGAGCCGCUGGGAACUAAUUUGUAUGCGAAAGUAUAUUGAUUAGUUUUGGAGUACUCGUGGUCG
# In short: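 Colonies from six replicate transformations of E. coli BL21(DE3) were pooled and amplicon-sequenced on an Illumina HiSeq 2500. The library placed an intron with all eight P1ex-region nucleotides randomised inside the knt kanamycin-resistance gene on pET-22b(+), and cells grew overnight at 37°C or 30°C on LB agar with or without 25 μg/mL kanamycin (plus 100 μg/mL carbenicillin, 50 μM IPTG, 0.2% rhamnose). Fitness is the DiMSum error-weighted combination of wild-type-normalised replicate fold changes, kanamycin versus none.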
Sequence,self-splicing fitness (ln) (30 °C),self-splicing fitness (ln) (37 °C)
AACAAGCAAUAUUACGCAAC,-3.89 ± 0.22,-1.63 ± 0.12
AACAAGCAAUAUUACGCAAG,-1.88 ± 0.084,-0.493 ± 0.086
AACAAGCAAUAUUACGCGGC,-3.28 ± 0.26,-1.71 ± 0.19
AACAAGCAAUAUUACGCGUU,-3.91 ± 0.2,-3.32 ± 0.18
AACAAGCAAUAUUACGCUUA,-2.08 ± 0.1,-1.21 ± 0.1
AACAAGCAAUAUUACGGAAG,-3.98 ± 0.18,-2.74 ± 0.15
AACAAGCAAUAUUACGGACA,-1.6 ± 0.094,0.312 ± 0.095
AACAAGCAAUAUUACGGACC,-1.84 ± 0.1,-0.201 ± 0.11
AACAAGCAAUAUUACGGCGC,-0.737 ± 0.1,0.0559 ± 0.12
AACAAGCAAUAUUACGUAAG,-1.93 ± 0.058,-1.16 ± 0.077
AACAAGCAAUAUUACGUCAC,-3.77 ± 0.22,-2.29 ± 0.23
AACAAGCAAUAUUACGUGAU,-2.2 ± 0.069,-1.46 ± 0.08
AACAAGCAAUAUUACGUUAA,-2.55 ± 0.15,-1.67 ± 0.14
AACAAGCAAUAUUACGUUAG,-4.21 ± 0.22,-3.26 ± 0.24
AACAAGCAAUAUUACGUUCA,-1.41 ± 0.053,-0.805 ± 0.063
AACCAGCAAUAUUACGAAGC,-3.37 ± 0.13,-0.929 ± 0.099
AACCAGCAAUAUUACGAUAU,-0.891 ± 0.057,-0.0726 ± 0.089
AACCAGCAAUAUUACGAUUG,-3.19 ± 0.15,-1.48 ± 0.11
AACCAGCAAUAUUACGCACC,0.0606 ± 0.077,0.308 ± 0.1
AACCAGCAAUAUUACGCAGA,-1.76 ± 0.11,-1.37 ± 0.11
AACCAGCAAUAUUACGCUCC,-0.493 ± 0.094,-0.0692 ± 0.12
AACCAGCAAUAUUACGGAAC,-2.13 ± 0.091,-1.04 ± 0.088
AACCAGCAAUAUUACGGACG,0.131 ± 0.059,-0.143 ± 0.07
AACCAGCAAUAUUACGGAUA,-0.931 ± 0.069,-0.176 ± 0.074
AACCAGCAAUAUUACGGAUG,-0.77 ± 0.058,-0.508 ± 0.072
AACCAGCAAUAUUACGGCGA,-0.304 ± 0.075,0.19 ± 0.11

Sequence,self-splicing fitness (ln) (30 °C),self-splicing fitness (ln) (37 °C)
AACCAGCAAUAUUACGGGCG,-0.173 ± 0.068,0.356 ± 0.081
AACCAGCAAUAUUACGGGGA,-2.46 ± 0.097,-1.09 ± 0.089
AACCAGCAAUAUUACGGGUG,-1.14 ± 0.046,-0.409 ± 0.064
AACCAGCAAUAUUACGGUCU,-0.594 ± 0.048,-0.249 ± 0.066
AACCAGCAAUAUUACGUAAG,-1.28 ± 0.059,-0.259 ± 0.072
AACCAGCAAUAUUACGUAUG,-2 ± 0.076,-0.882 ± 0.072
AACCAGCAAUAUUACGUCCA,-0.505 ± 0.061,-0.595 ± 0.068
AACCAGCAAUAUUACGUUUA,-1.01 ± 0.062,-0.649 ± 0.074
AACCAGCAAUAUUACGUUUC,-4.08 ± 0.17,-2.92 ± 0.21
AACGAGCAAUAUUACGAAAC,–,-2.37 ± 0.22
AACGAGCAAUAUUACGAAGC,-3.92 ± 0.42,-1.91 ± 0.37
AACGAGCAAUAUUACGAGUC,–,-2.63 ± 0.44
AACGAGCAAUAUUACGAUCU,-0.758 ± 0.088,-0.0761 ± 0.1
AACGAGCAAUAUUACGCAGC,-2.29 ± 0.29,–
AACGAGCAAUAUUACGCAGU,-2.87 ± 0.23,-2.52 ± 0.29
AACGAGCAAUAUUACGCGCC,-2.77 ± 0.3,-2.61 ± 0.48
AACGAGCAAUAUUACGCUAG,-3.61 ± 0.25,-2.92 ± 0.43
AACGAGCAAUAUUACGCUUA,-2.86 ± 0.26,-1.31 ± 0.2
AACGAGCAAUAUUACGGCGC,-2.14 ± 0.18,-1.31 ± 0.16
AACGAGCAAUAUUACGGCUC,-2.49 ± 0.44,–
AACGAGCAAUAUUACGGGGC,-4.03 ± 0.27,-3.46 ± 0.35
AACGAGCAAUAUUACGGUCA,-2.05 ± 0.21,-1.12 ± 0.2
AACGAGCAAUAUUACGGUUA,-1.84 ± 0.18,-0.413 ± 0.15
AACGAGCAAUAUUACGGUUU,-2.07 ± 0.079,-0.83 ± 0.089
AACGAGCAAUAUUACGUAUU,-3.1 ± 0.16,-1.85 ± 0.14
AACGAGCAAUAUUACGUCCG,–,-2.07 ± 0.29

Sequence,self-splicing fitness (ln) (30 °C),self-splicing fitness (ln) (37 °C)
AACGAGCAAUAUUACGUCGA,–,-2.06 ± 0.21
AACGAGCAAUAUUACGUGAA,-3.48 ± 0.19,-3.65 ± 0.24
AACGAGCAAUAUUACGUUGC,-4.01 ± 0.18,-3.16 ± 0.19
AACGAGCAAUAUUACGUUUC,-3.05 ± 0.19,-2.42 ± 0.19
AACUAGCAAUAUUACGAAGC,-2.35 ± 0.4,-0.29 ± 0.35
AACUAGCAAUAUUACGAAGU,-3.67 ± 0.3,-2 ± 0.13
AACUAGCAAUAUUACGAGAC,-1.96 ± 0.44,–
AACUAGCAAUAUUACGAGAG,-3.61 ± 0.12,-1.84 ± 0.11
AACUAGCAAUAUUACGAGCG,-0.883 ± 0.089,-0.592 ± 0.098
AACUAGCAAUAUUACGCAAA,-2.38 ± 0.13,-1.72 ± 0.1
AACUAGCAAUAUUACGCAAU,-2.35 ± 0.13,-2.15 ± 0.16
AACUAGCAAUAUUACGCACA,-0.559 ± 0.061,0.145 ± 0.077
AACUAGCAAUAUUACGCUAA,-2.06 ± 0.11,-1.51 ± 0.12
AACUAGCAAUAUUACGCUGU,-3.41 ± 0.16,-3.84 ± 0.32
AACUAGCAAUAUUACGGAAC,-2.99 ± 0.21,-2.08 ± 0.3
AACUAGCAAUAUUACGGACU,-1.36 ± 0.24,0.037 ± 0.28
AACUAGCAAUAUUACGGCAG,-1.09 ± 0.094,-0.755 ± 0.095
AACUAGCAAUAUUACGGCCC,-1.6 ± 0.17,-0.325 ± 0.24
AACUAGCAAUAUUACGGGCU,-1.29 ± 0.11,-1.19 ± 0.16
AACUAGCAAUAUUACGGUAU,-1.31 ± 0.072,-0.479 ± 0.092
AACUAGCAAUAUUACGGUUA,-0.722 ± 0.084,-0.482 ± 0.083
AACUAGCAAUAUUACGUACC,-1.14 ± 0.1,-0.0487 ± 0.14
AACUAGCAAUAUUACGUAUG,-3.11 ± 0.11,-1.22 ± 0.11
AACUAGCAAUAUUACGUGCA,-0.72 ± 0.054,-0.578 ± 0.065
AACUAGCAAUAUUACGUGGA,-2.28 ± 0.11,-1.61 ± 0.1
